Data reported in US20260069656A1, “Nutritive Polypeptides and Formulations Thereof, and Methods of Production and Use Thereof” (Axcella Health Inc., priority 2013, published 2026).

Tests used:
[1] = Solubility of proteins (lyophilized/reconstituted or ultrafiltered); details: produced in E. coli unless otherwise noted
Description: Solubility. […] Protein samples were dried by lyophilization on a FreeZone Freeze Dry System (Labconco) using the manufacturer's standard protocol and then resuspended in buffer to the desired concentration. Centrifugal and tangential ultrafiltration were used to selectively remove buffer from the protein sample until the desired concentration was reached. Centrifugal ultrafiltration of protein solutions was performed by centrifugation (10,000×g) of 10 mg of protein in an Amicon centrifugal filter (Millipore) with a molecular weight cutoff of 3 kDa, 10 kDa, or 30 kDa, depending on the protein size, until the desired contrentration was reached. Ultrafiltration of protein solutions was performed on Hydrosart ultrafiltration cassettes (Sartorius Stedim, Bohemia, NY) with a molecular weight cutoff of 3 kDa, 10 kDa, or 30 kDa, depending on the protein size, at a cross flow rate of 12 L/m2/min. For most processes, transmembrane pressure was maintained at 20 psi and performed until the desired contrentration was reached.
The protein concentration of the above samples was measured by one or a combination of the following methods: Coomassie Plus Protein Assay, absorbance at 280 nm (A280), and total amino acid analysis. Coomassie Plus Protein Assays (Pierce) were performed according to the manufacturer's protocol. Absorbance at 280 nm was measured on a Nanodrop 2000 UV-Vis spectrophotometer. Protein concentration was determined using the A280 value and molar extinction coefficient, which was calculated by primary amino acid sequence using ProtParam (Gasteiger, Elisabeth, et al. The proteomics protocols handbook. Humana Press, 2005. 571-607.). Total amino acids were analyzed by HPLC after acid hydrolysis as described in Henderson, J. W., et al. Agilent Technologies (2010).

[2] = pH solubility screen in Citric Acid / Dibasic Sodium Phosphate buffers; assay type: physicochemical
Description: pH Solubility. […] Protein was either lyophilized and then resuspended in buffer cocktail mixtures, or concentrated and then spiked into buffer cocktail mixtures at a final protein concentration of 5 to 30 mg/ml. As a control, protein was also dissolved in a solution of 8 M urea. Protein solutions were shaken for 10 min at room temperature. Turbidity of proteins was determined by measuring the absorbance of protein solutions at 650 nm. The protein solution was then centrifuged for 10 min at 1100×g to pellet undissolved or precipitated protein. The soluble protein fraction (supernatant) was sampled and protein concentration was measured by one or more of the following methods: Coomassie Plus Protein Assay (Pierce), Chip electrophoresis, gel electrophoresis, and/or absorbance at 280 nm. The pH range over which select proteins remained greater than 80% soluble as determined by Bradford and the A650 value are listed in Table E31C.

[3] = Rat pharmacokinetic studies, plasma amino acids by HPLC; details: oral administration to rats
Description: Rat pharmacokinetic studies. Male Sprague Dawley rats with indwelling jugular vein cannula (JVC) were purchased from Harlan Laboratories and acclimated to the Test Facility (Agilux Laboratories) for at least two days prior to study initiation. Prior to dose administration animals were fasted overnight (11-13 h) and remained fasted until completion of the study. Test articles were orally administered via a bulb-tipped 18 gauge stainless steel gavage needle attached to a syringe. The weight of all dose syringes were recorded prior to and following dosing to more accurately determine the amount of solution dosed. Serial blood samples (˜300 μL) were collected from the JVC at time 0 (pre-dose) and 0.25, 0.5, 1, 2, and 4 h post-dose. Blood samples were collected into tubes containing the anti-coagulant K2EDTA, a general protease inhibitor cocktail (Sigma P8340, diluted 1:100 in whole blood), and a DPP IV inhibitor (Millipore DPP4, diluted 1:100 in whole blood). Immediately following blood collection tubes were vortexed and stored on wet ice until processing to plasma by centrifugation (3,500 rpm at 5° C.) within 1 h of collection. Plasma samples were then transferred into new tubes and stored at −80° C.
The concentration of Glu, Ser, His, Gly, Thr, Arg, Ala, Tyr, Val, Met, Phe, Ile, Leu, and Lys in the plasma samples was determined by HPLC amino acid analysis, as described herein. Prior to HPLC amino acid analysis, insoluble particles were removed from plasma samples by centrifugation (1100×g at 4° C.) for 10 min. A 25 μL sample of the soluble fraction was then transferred to a 96-well plate, for some samples an internal standard (Norvaline, Agilent) was added to each plasma sample at final concentration of 0.5 mM.

[4] = system: GLP-2; assay: Total GLP-2 ELISA, plasma GLP-2 in healthy fasted rats; assay type: in vivo, rat
Description: Animals were treated and acutely dosed with test articles as part of pharmacokinetic rodent experiments according to methods described herein. In this experiment, two test articles were analyzed, vehicle and a nutritive formulation of SEQID-240, dosed at 1.54 g/kg.
Total GLP-2 was measured with Millipore Total GLP-2 ELISA Kit (Millipore, EZGLP2-37K). The ELISA kit was equilibrated to room temperature for a minimum of 30 minutes prior to running the assay. The kit GLP-2 Standard, Quality Control 1 and Quality Control 2 were reconstituted with 500 μL MilliQ water, inverted 5 times and incubated at room temperature for 5 minutes, then gently vortexed to mix. The standard curve was prepared by diluting the GLP-2 Standard serially 1:1 in kit Assay Buffer to generate an eight point standard curve including 0 ng/mL GLP-2. Plasma samples were thawed on ice and centrifuged for 10 minutes at approximately 1109× rcf to pellet insoluble material. Fasted plasma matrix from untreated, fasted rat was prepared for running the standard and quality controls in duplicate at 20% (2×).
1× Wash Buffer was prepared in a clean 500 mL glass bottle by combining 50 mL 10× Wash Buffer with 450 mL MilliQ water. Strips were prepared by washing 3 times with 300 μL 1× Wash Buffer applied with a 30-300 μL 8-channel pipette. Between washes the wash buffer was decanted into a waste receptacle and the plate tapped sharply on a stack of paper towels to remove remaining wash buffer.
Following the first wash, 90 μL of Assay Buffer was added to sample wells, and 50 μL of 20% matrix in Assay Buffer was added to all standard and quality control wells. 10 μL of sample was added to each sample well and 50 μL of standard and quality control were added to matrix containing wells. Samples, standards and quality control wells were run in duplicate, except for 0 ng/mL GLP-2 standard which was run in quadruplicate.
The plate was sealed with a plastic plate seal and incubated at room temperature on a horizontal plate shaker at 450 rpm for 2 hours. Following the first incubation, the plate was washed three times with 1× Wash Buffer, decanting into a waste receptacle and tapping the inverted plate sharply on a stack of paper towels to remove excess wash buffer after each wash.
100 μL of Detection Antibody was added to each well and the plate was sealed with a plastic plate seal and incubated at room temperature on a horizontal plate shaker at 450 rpm for 1 hour. […]
Absorbance was measured on a SynergyMX Plate Reader at 450 nm and 590 nm. Measured values were the difference between 450 nm and 590 nm absorbance values.
Data were analyzed with GraphPad Prism 6.03. […]

[5] = Intact half-life during simulated gastric fluid (SGF) digestion; details: SGF pH 1.5, pepsin:polypeptide 1:20 w/w, 37° C.; produced in E. coli unless otherwise noted

With “SEQID-00240: nutritive polypeptide naturally produced in Cow, recombinantly expressed in E. coli (DLEGSLEQEKKLRMDLERAKRKLEGDLKLAQESTMDIENDKQQLDEKLKK; listed as Bos taurus)” the “Solubility” value [1] was 163 mg/mL, the “pH Range where Protein is >80% detected as Soluble and A650 <1 OD: Low” value ([2]; lower pH of range) was 6.6 and the “pH Range where Protein is >80% detected as Soluble and A650 <1 OD: High” value ([2]; upper pH of range) was 9.1. For the same substance, the “plasma Phe concentration” value [3] was “causing no flux in plasma Phe concentration”, the “change in AUC0-4 h for plasma Lys” value ([3]; doses of Table E33A) was “increased the change in AUC0-4 h for plasma Lys” and the “GLP-2 area under curve vs vehicle” value ([4]; 0-60 minutes, P<0.005) was “significantly greater in the SEQID-00240 treatment compared to vehicle”. The “GLP-2 area under curve vs vehicle” value ([4]; 0-240 minutes, P<0.01) was “significantly greater in the SEQID-00240 treatment compared to vehicle”, the “total GLP-2 concentration vs vehicle” value ([4]; 1.54 g/kg, at 15, 30, 60 and 120 minutes following treatment) was “statistically significantly greater than vehicle” and the “total GLP-2 concentration relative to time 0” value ([4]; 1.54 g/kg, at 15, 30 and 60 minutes following gavage) was “statistically significant increase in GLP-2 concentration relative to time 0”. For the same substance, the “SGF Half-life (t½)” value [5] was 42 s.
